Data on one molecule can be found in patent US20120076796A1 (Ablynx, published 2012).

This test has as its target T1, Recombinant human Angiopoietin-2 (R&D Systems Cat No 623-AN/CF) (human, UniProt O15123 19-496, limits assumed).
T1 construct: Bought reagent; also called Ang2; human Ang2
T1 sequence (looked up): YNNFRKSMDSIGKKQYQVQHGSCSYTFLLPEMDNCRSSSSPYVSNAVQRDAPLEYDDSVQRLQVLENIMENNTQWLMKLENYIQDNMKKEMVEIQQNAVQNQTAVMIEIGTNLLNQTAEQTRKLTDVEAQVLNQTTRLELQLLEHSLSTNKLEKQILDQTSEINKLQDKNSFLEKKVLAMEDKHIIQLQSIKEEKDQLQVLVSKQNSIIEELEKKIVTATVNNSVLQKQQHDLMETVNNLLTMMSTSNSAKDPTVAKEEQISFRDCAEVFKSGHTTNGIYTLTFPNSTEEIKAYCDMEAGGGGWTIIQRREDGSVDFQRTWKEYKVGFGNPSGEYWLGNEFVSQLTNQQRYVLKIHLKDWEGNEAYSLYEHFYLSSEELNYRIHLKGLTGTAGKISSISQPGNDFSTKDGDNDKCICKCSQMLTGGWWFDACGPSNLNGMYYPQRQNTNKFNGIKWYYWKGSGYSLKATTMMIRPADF
Briefly: listed in the alignment of Ang2 binding Nanobodies; assay not told for this clone.

B1: 166-H5 (VHH)
VHH: EVQLVESGGGLVQAGGSLSLACVVSGRFSRINSMAWSRQVPGNARELVASVTSGGYTNYVDSVKGRFTISRDNAKNAIYLQMNSLKSEDTAVYYCNARVVVRTAHGFEDNYWGQGTQVTVSS
B1: the binding result is reported as “binds”.
